Experimental data from patent publication US20260103529A1, “Amino Acid Sequences Directed Against the Melanocortin 4 Receptor and Polypeptides Comprising the Same for the Treatment of MC4R-Related Diseases and Disorders” (Confo Therapeutics N.V., priority 2022, published 2026).

What was measured:
Assay in all cases: cell-based or functional assay
[1] = molecular target: human MC1R (melanocortin 1 receptor) (human) (UniProt Q01726)
[2] = molecular target: human MC3R (melanocortin 3 receptor) (human) (UniProt P41968)
Sequence of human MC3R (melanocortin 3 receptor) (human) (P41968 whole entry): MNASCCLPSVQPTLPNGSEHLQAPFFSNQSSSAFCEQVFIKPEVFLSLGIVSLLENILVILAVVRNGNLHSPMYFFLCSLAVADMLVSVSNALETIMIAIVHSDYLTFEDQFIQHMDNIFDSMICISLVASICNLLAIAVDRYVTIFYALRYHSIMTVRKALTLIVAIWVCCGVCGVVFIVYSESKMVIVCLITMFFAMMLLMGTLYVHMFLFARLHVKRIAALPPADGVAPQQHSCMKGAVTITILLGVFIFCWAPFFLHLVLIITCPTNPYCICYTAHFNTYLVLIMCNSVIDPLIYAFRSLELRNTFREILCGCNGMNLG

[3] = molecular target: human MC5R (melanocortin 5 receptor) (human) (UniProt P33032)
Sequence of human MC5R (melanocortin 5 receptor) (human) (P33032 whole entry): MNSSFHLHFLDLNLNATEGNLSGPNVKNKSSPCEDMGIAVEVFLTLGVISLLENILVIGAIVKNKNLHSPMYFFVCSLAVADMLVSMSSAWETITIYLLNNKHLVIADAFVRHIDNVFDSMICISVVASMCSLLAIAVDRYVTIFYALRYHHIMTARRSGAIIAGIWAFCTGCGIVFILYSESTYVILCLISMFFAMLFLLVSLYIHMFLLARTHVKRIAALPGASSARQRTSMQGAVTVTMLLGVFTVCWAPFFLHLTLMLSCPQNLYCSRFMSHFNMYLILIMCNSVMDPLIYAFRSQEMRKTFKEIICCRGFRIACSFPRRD

[4] = molecular target: human wild type MC4R (melanocortin 4 receptor) expressed on HEK293/HEK293T cells (human) (UniProt P32245)
Sequence of human wild type MC4R (melanocortin 4 receptor) expressed on HEK293/HEK293T cells (human) (P32245 whole entry): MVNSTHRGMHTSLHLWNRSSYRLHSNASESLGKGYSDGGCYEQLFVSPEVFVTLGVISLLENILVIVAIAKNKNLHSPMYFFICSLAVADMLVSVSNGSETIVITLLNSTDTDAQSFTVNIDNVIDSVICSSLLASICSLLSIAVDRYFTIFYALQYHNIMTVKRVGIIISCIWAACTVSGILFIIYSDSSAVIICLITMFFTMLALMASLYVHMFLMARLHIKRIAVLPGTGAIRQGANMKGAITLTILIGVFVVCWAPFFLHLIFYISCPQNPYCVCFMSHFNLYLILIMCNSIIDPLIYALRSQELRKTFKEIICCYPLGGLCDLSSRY

Sequence of human MC1R (melanocortin 1 receptor) (human) (Q01726 whole entry): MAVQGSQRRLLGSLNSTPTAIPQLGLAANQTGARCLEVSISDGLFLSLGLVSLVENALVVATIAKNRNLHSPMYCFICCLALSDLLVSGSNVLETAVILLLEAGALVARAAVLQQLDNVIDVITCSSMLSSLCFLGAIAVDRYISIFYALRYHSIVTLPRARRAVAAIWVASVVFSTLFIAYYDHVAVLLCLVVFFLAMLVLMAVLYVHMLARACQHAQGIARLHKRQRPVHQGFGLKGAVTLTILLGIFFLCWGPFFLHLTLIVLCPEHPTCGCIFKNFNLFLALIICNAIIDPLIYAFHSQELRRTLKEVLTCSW

setmelanotide (peptide)
in vitro cAMP potency EC50 (GloSensor) [1]: 11.5 nM
in vitro cAMP potency EC50 (GloSensor) [2]: 2.1 nM
in vitro cAMP potency EC50 (GloSensor) [3]: 451 nM
Gs ConfoSensor, 1 mM Ca^2+, EC50 [4]: 0.6 nM
Gs ConfoSensor, No Ca^2+, EC50 [4]: 12 nM
in vitro cAMP potency EC50 (GloSensor) [4]: 2 nM
β-arrestin recruitment, 1 mM Ca^2+, EC50 [4]: 1.3 nM
β-arrestin recruitment, No Ca^2+, EC50 [4]: 18 nM
